For assay [1], the target named is Htt-N20^S13P-GB1 (UniProt P42858). Put plainly: NMR titration; 15N-labelled Htt-N20-GB1 or mutants (50 μM) titrated with HSP90 constructs or HSP70; [1H,15N] HSQC peak intensities; 20 mM phosphate, 50 mM NaCl, pH 6.5, 25 °C.
In assay [2] the target is Htt-N20-GB1 (N-terminal 20-residue fragment of Htt with GB1 fused at the C terminus) (UniProt P42858). Described as above.
The target in assay [3] is HSP90-MC (residues 236–696) (UniProt P07900). The assay can be described thus: SEC; Superdex-200 Increase 10/300 GL, ~100 μM protein loaded; 20 mM phosphate, 50 mM NaCl, pH 6.5; apparent molecular weights from calibration with standard proteins.

As usually defined, the stoichiometry N is the number of molecules, sites or subunits per partner or assembly.

“HSP90(1–696) (from UniProt P07900 1-696) (domain or fragment)”: the results for the average relative peak intensity of the Htt-N20 moiety at a 1:1 ratio in assay [1] and in assay [2] were 0.86 and 0.59, respectively. Take “HSP90-MC (residues 236–696) (from UniProt P07900 236-696) (domain or fragment)”: the stoichiometry N in assay [3] amounted to 2.

The values above are taken from PMC5666004.
